The values that follow come from patent publication US20060257938A1, “Method of screening for drugs that block ligand binding to a lipid binding protein” (priority 2005, published 2006).

What all share (format): binding
Assay [1] in a line: Probe fluorescence ratio response to arachidonic acid relative to ADIFAB2. Particulars: for DR/DRAD2 AA: Table 3. The method, boiled down:
(§1)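 Each fatty acid's response was expressed relative to ADIFAB2, the rI-FABP-L72A probe, as ΔR/ΔRreference. ΔR is the change in the background-corrected two-wavelength intensity ratio R=Fλ1/Fλ2 from its analyte-free baseline R0. Emission was read near about 420-480 nm for unbound and about 495-580 nm for FFA-bound probe.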

Assay [2] can be described thus: Probe fluorescence ratio response to linoleic acid relative to ADIFAB2. Particulars: for DR/DRAD2 LA: Table 3. In outline:
as §1

The nature of assay [3]: Probe fluorescence ratio response to linolenic acid relative to ADIFAB2. Particulars: for DR/DRAD2 LNA: Table 3. The method, boiled down:
as §1

The nature of assay [4]: Probe fluorescence ratio response to oleic acid relative to ADIFAB2. Particulars: for DR/DRAD2 OA: Table 3. The method, boiled down:
as §1

Assay [5] in a line: Probe fluorescence ratio response to palmitic acid relative to ADIFAB2. Particulars: for DR/DRAD2 PA: Table 3. In outline: as §1

B1: 23Y, 72A (protein, listed as Rattus norvegicus)
chain: AFDGTWKVDRNENYEKFMEKMGYNVVKRKLGAHDNLKLTITQEGNKFTVKESSNFRNIDVVFELGVDFAYSAADGTELTGTWTMEGNKLVGKFKRVDNGKELIAVREISGNELIQTYTYEGVEAKRIFKKE
modifications: PEPTIDE (1)...(131) wild-type rat intestinal fatty acid binding protein
For the molecule B1, in assay [1] (arachidonic acid, response relative to ADIFAB2), the “DR/DR AA” value worked out at 0.492. Further, the “DR/DR LA” value in assay [2] (response relative to ADIFAB2) stood at 0.442. The “DR/DR LNA” value in assay [3] (response relative to ADIFAB2) is recorded as 0.443. The “DR/DR OA” value in assay [4] (response relative to ADIFAB2) is 0.412. Also, the “DR/DR PA” value in assay [5] (response relative to ADIFAB2) is recorded as 0.281.

B2: A73F, L72A: FABP probe clone, substitutions A73F, L72A vs SEQ ID NO: 2 (protein, listed as Rattus norvegicus)
chain: AFDGTWKVDRNENYEKFMEKMGINVVKRKLGAHDNLKLTITQEGNKFTVKESSNFRNIDVVFELGVDFAYSAFDGTELTGTWTMEGNKLVGKFKRVDNGKELIAVREISGNELIQTYTYEGVEAKRIFKKE
modifications: PEPTIDE (1)...(131) wild-type rat intestinal fatty acid binding protein
As for B2, the “DR/DRAD2 AA” value in assay [1] (Arachidonic acid) is recorded as 1.21. In assay [2], the “DR/DRAD2 LA” value was determined as 1.23. In addition, in assay [3], the “DR/DRAD2 LNA” value is listed as 1.86. Moreover, the “DR/DRAD2 OA” value in assay [4] is given as 0.73. The “DR/DRAD2 PA” value in assay [5] was determined as 1.13.

B3: L1P12E11: FABP probe, substitutions Y14L L72W vs SEQ ID NO: 2 (protein, listed as Rattus norvegicus)
chain: AFDGTWKVDRNENLEKFMEKMGINVVKRKLGAHDNLKLTITQEGNKFTVKESSNFRNIDVVFELGVDFAYSWADGTELTGTWTMEGNKLVGKFKRVDNGKELIAVREISGNELIQTYTYEGVEAKRIFKKE
modifications: PEPTIDE (1)...(131) wild-type rat intestinal fatty acid binding protein
Turning to B3, the “ΔR/DRAΔ2 AA” value in assay [1] (Table 4, Arachidonic acid) is −0.5. Also, the “ΔR/DRAΔ2 LA” value in assay [2] (Table 4) is given as −0.7. Moreover, in assay [3] (Table 4), the “ΔR/DRAΔ2 LNA” value is given as −0.7. For the same molecule, the “ΔR/DRAΔ2 OA” value in assay [4] (Table 4) is −1.0. Further, the “ΔR/DRAΔ2 PA” value in assay [5] (Table 4) was −0.1.

B4: L72M: FABP probe clone, substitution L72M vs SEQ ID NO: 2 (protein, listed as Rattus norvegicus)
chain: AFDGTWKVDRNENYEKFMEKMGINVVKRKLGAHDNLKLTITQEGNKFTVKESSNFRNIDVVFELGVDFAYSMADGTELTGTWTMEGNKLVGKFKRVDNGKELIAVREISGNELIQTYTYEGVEAKRIFKKE
modifications: PEPTIDE (1)...(131) wild-type rat intestinal fatty acid binding protein
With B4, in assay [1] (Arachidonic acid), the “DR/DRAD2 AA” value amounted to 1.31. The “DR/DRAD2 LA” value in assay [2] was 1.46. Further, the “DR/DRAD2 LNA” value in assay [3] is 1.35. For the same molecule, the “DR/DRAD2 OA” value in assay [4] turned out to be 1.49. The “DR/DRAD2 PA” value in assay [5] is recorded as 1.32.

B5: L72G: FABP probe clone, substitution L72G vs SEQ ID NO: 2 (protein, listed as Rattus norvegicus)
chain: AFDGTWKVDRNENYEKFMEKMGINVVKRKLGAHDNLKLTITQEGNKFTVKESSNFRNIDVVFELGVDFAYSGADGTELTGTWTMEGNKLVGKFKRVDNGKELIAVREISGNELIQTYTYEGVEAKRIFKKE
modifications: PEPTIDE (1)...(131) wild-type rat intestinal fatty acid binding protein
In the case of B5, the “DR/DRAD2 AA” value in assay [1] (Arachidonic acid) was 0.62. The “DR/DRAD2 LA” value in assay [2] is 0.48. Moreover, the “DR/DRAD2 LNA” value in assay [3] amounted to 0.48. For the same molecule, in assay [4], the “DR/DRAD2 OA” value is 0.52. Besides, the “DR/DRAD2 PA” value in assay [5] worked out at 0.26.

B6: Y117S, L72A: FABP probe clone, substitutions Y117S, L72A vs SEQ ID NO: 2 (protein, listed as Rattus norvegicus)
chain: AFDGTWKVDRNENYEKFMEKMGINVVKRKLGAHDNLKLTITQEGNKFTVKESSNFRNIDVVFELGVDFAYSAADGTELTGTWTMEGNKLVGKFKRVDNGKELIAVREISGNELIQTSTYEGVEAKRIFKKE
modifications: PEPTIDE (1)...(131) wild-type rat intestinal fatty acid binding protein
Take B6: in assay [1] (Arachidonic acid), the “DR/DRAD2 AA” value was 1.35. Also, the “DR/DRAD2 LA” value in assay [2] is given as 1.42. The “DR/DRAD2 LNA” value in assay [3] was found to be 1.07. For the same molecule, the “DR/DRAD2 OA” value in assay [4] came to 1.19. For the same molecule, the “DR/DRAD2 PA” value in assay [5] amounted to 0.55.

B7: R106W, L72A: FABP probe clone, substitutions R106W, L72A vs SEQ ID NO: 2 (protein, listed as Rattus norvegicus)
chain: AFDGTWKVDRNENYEKFMEKMGINVVKRKLGAHDNLKLTITQEGNKFTVKESSNFRNIDVVFELGVDFAYSAADGTELTGTWTMEGNKLVGKFKRVDNGKELIAVWEISGNELIQTYTYEGVEAKRIFKKE
modifications: PEPTIDE (1)...(131) wild-type rat intestinal fatty acid binding protein
Consider B7, for which the “DR/DRAD2 AA” value in assay [1] (Arachidonic acid) turned out to be 1.11. For the same molecule, the “DR/DRAD2 LA” value in assay [2] was 1.04. Also, the “DR/DRAD2 LNA” value in assay [3] is 1.03. Moreover, the “DR/DRAD2 OA” value in assay [4] was 0.99. Further, in assay [5], the “DR/DRAD2 PA” value stood at 0.41.

B8: D74F, L72A: FABP probe clone, substitutions D74F, L72A vs SEQ ID NO: 2 (protein, listed as Rattus norvegicus)
chain: AFDGTWKVDRNENYEKFMEKMGINVVKRKLGAHDNLKLTITQEGNKFTVKESSNFRNIDVVFELGVDFAYSAAFGTELTGTWTMEGNKLVGKFKRVDNGKELIAVREISGNELIQTYTYEGVEAKRIFKKE
modifications: PEPTIDE (1)...(131) wild-type rat intestinal fatty acid binding protein
As to B8, the “DR/DRAD2 AA” value in assay [1] (Arachidonic acid) is reported as 0.44. The “DR/DRAD2 LA” value in assay [2] is reported as 0.67. Besides, the “DR/DRAD2 LNA” value in assay [3] turned out to be 1.04. For the same molecule, the “DR/DRAD2 OA” value in assay [4] is reported as 0.51. Besides, in assay [5], the “DR/DRAD2 PA” value is 0.93.

B9: L72A: FABP probe clone, substitution L72A vs SEQ ID NO: 2 (protein of ADIFAB2) (protein, listed as Rattus norvegicus)
chain: AFDGTWKVDRNENYEKFMEKMGINVVKRKLGAHDNLKLTITQEGNKFTVKESSNFRNIDVVFELGVDFAYSAADGTELTGTWTMEGNKLVGKFKRVDNGKELIAVREISGNELIQTYTYEGVEAKRIFKKE
modifications: PEPTIDE (1)...(131) wild-type rat intestinal fatty acid binding protein
With B9, the “DR/DRAD2 AA” value in assay [1] (Arachidonic acid) is reported as 1.12. The “DR/DRAD2 LA” value in assay [2] is on record as 1.14. Also, in assay [3], the “DR/DRAD2 LNA” value is listed as 1.16. Also, the “DR/DRAD2 OA” value in assay [4] is reported as 1.15. Besides, the “DR/DRAD2 PA” value in assay [5] came out at 1.02.

B10: L78F, L72A: FABP probe clone, substitutions L78F, L72A vs SEQ ID NO: 2 (protein, listed as Rattus norvegicus)
chain: AFDGTWKVDRNENYEKFMEKMGINVVKRKLGAHDNLKLTITQEGNKFTVKESSNFRNIDVVFELGVDFAYSAADGTEFTGTWTMEGNKLVGKFKRVDNGKELIAVREISGNELIQTYTYEGVEAKRIFKKE
modifications: PEPTIDE (1)...(131) wild-type rat intestinal fatty acid binding protein
As for B10, the “DR/DRAD2 AA” value in assay [1] (Arachidonic acid) was determined as 2.04. For the same molecule, in assay [2], the “DR/DRAD2 LA” value was found to be 2. In assay [3], the “DR/DRAD2 LNA” value is 2.05. Further, in assay [4], the “DR/DRAD2 OA” value was determined as 1.83. The “DR/DRAD2 PA” value in assay [5] was determined as 0.91.

B11: A73I, L72A: FABP probe clone, substitutions A73I, L72A vs SEQ ID NO: 2 (protein, listed as Rattus norvegicus)
chain: AFDGTWKVDRNENYEKFMEKMGINVVKRKLGAHDNLKLTITQEGNKFTVKESSNFRNIDVVFELGVDFAYSAIDGTELTGTWTMEGNKLVGKFKRVDNGKELIAVREISGNELIQTYTYEGVEAKRIFKKE
modifications: PEPTIDE (1)...(131) wild-type rat intestinal fatty acid binding protein
Regarding B11, the “DR/DRAD2 AA” value in assay [1] (Arachidonic acid) worked out at 0.38. In addition, the “DR/DRAD2 LA” value in assay [2] is −0.04. Also, the “DR/DRAD2 LNA” value in assay [3] is 0.03. Moreover, the “DR/DRAD2 OA” value in assay [4] was −0.04. Also, in assay [5], the “DR/DRAD2 PA” value is reported as −0.04.

B12: Y117A, L72A: FABP probe clone, substitutions Y117A, L72A vs SEQ ID NO: 2 (protein, listed as Rattus norvegicus)
chain: AFDGTWKVDRNENYEKFMEKMGINVVKRKLGAHDNLKLTITQEGNKFTVKESSNFRNIDVVFELGVDFAYSAADGTELTGTWTMEGNKLVGKFKRVDNGKELIAVREISGNELIQTATYEGVEAKRIFKKE
modifications: PEPTIDE (1)...(131) wild-type rat intestinal fatty acid binding protein
For the molecule B12, in assay [1] (Arachidonic acid), the “DR/DRAD2 AA” value was 1.27. Also, the “DR/DRAD2 LA” value in assay [2] is reported as 1.01. Further, the “DR/DRAD2 LNA” value in assay [3] stood at 0.62. The “DR/DRAD2 OA” value in assay [4] was found to be 0.93. In assay [5], the “DR/DRAD2 PA” value was 0.32.

B13: W82F, L72A: FABP probe clone, substitutions W82F, L72A vs SEQ ID NO: 2 (protein, listed as Rattus norvegicus)
chain: AFDGTWKVDRNENYEKFMEKMGINVVKRKLGAHDNLKLTITQEGNKFTVKESSNFRNIDVVFELGVDFAYSAADGTELTGTFTMEGNKLVGKFKRVDNGKELIAVREISGNELIQTYTYEGVEAKRIFKKE
modifications: PEPTIDE (1)...(131) wild-type rat intestinal fatty acid binding protein
Consider B13, for which the “DR/DRAD2 AA” value in assay [1] (Arachidonic acid) was 0.68. Besides, the “DR/DRAD2 LA” value in assay [2] is recorded as 1.08. Also, the “DR/DRAD2 LNA” value in assay [3] stood at 0.76. Further, the “DR/DRAD2 OA” value in assay [4] was found to be 0.78. Also, the “DR/DRAD2 PA” value in assay [5] turned out to be 0.41.
